Data as given in patent publication US20250276075A1, “METHODS OF TREATING AXL-EXPRESSING CANCERS WITH ANTI-AXL ANTIBODIES, ANTIBODY FRAGMENTS AND THEIR IMMUNOCONJUGATES” (BIOATLA, INC., priority 2020, published 2025).

T1: Axl (Homo sapiens, UniProt P30530)
T1 sequence (P30530 26-451 limits assumed): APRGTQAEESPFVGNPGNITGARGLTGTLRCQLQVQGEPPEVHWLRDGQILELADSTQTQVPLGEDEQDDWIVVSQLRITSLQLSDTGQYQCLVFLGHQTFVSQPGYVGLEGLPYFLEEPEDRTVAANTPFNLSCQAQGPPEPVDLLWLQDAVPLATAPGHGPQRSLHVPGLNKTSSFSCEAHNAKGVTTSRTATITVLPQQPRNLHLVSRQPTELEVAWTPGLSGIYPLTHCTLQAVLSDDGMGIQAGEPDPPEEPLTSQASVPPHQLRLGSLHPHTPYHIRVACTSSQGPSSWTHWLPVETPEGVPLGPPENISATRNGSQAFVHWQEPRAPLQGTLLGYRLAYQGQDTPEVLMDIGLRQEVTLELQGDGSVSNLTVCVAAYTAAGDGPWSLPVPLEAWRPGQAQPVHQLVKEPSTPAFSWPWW

B1: HC-E102D (antibody, V domains shown)
VH: EVQLVQSGAEVKKPGATVKISCKVSGYSFTGHTMNWIRQPPGKGLEWIGLIKPSNGGTSYNQKFKGRVTISADKSISTAYLQWSSLKASDTAMYYCAHGHYDSYFAMDYWGQGTLVTVSS
VL: DIQMTQSPSSLSASVGDRVTITCKASQDVSSAVAWYQQKPGQAPRLLIYWASTRHTGVPSRFSGSGSGTEFTLTISSLQPDDFATYYCQEHFSTPLTFGQGTKVEIK
B2: HC-F105V (antibody, V domains shown)
VH: EVQLVQSGAEVKKPGATVKISCKVSGYSFTGHTMNWIRQPPGKGLEWIGLIKPSNGGTSYNQKFKGRVTISADKSISTAYLQWSSLKASDTAMYYCAHGHYESYVAMDYWGQGTLVTVSS
VL: DIQMTQSPSSLSASVGDRVTITCKASQDVSSAVAWYQQKPGQAPRLLIYWASTRHTGVPSRFSGSGSGTEFTLTISSLQPDDFATYYCQEHFSTPLTFGQGTKVEIK
B3: HC-A106G (antibody, V domains shown)
VH: EVQLVQSGAEVKKPGATVKISCKVSGYSFTGHTMNWIRQPPGKGLEWIGLIKPSNGGTSYNQKFKGRVTISADKSISTAYLQWSSLKASDTAMYYCAHGHYESYFGMDYWGQGTLVTVSS
VL: DIQMTQSPSSLSASVGDRVTITCKASQDVSSAVAWYQQKPGQAPRLLIYWASTRHTGVPSRFSGSGSGTEFTLTISSLQPDDFATYYCQEHFSTPLTFGQGTKVEIK
B4: HC-A106L (antibody, V domains shown)
VH: EVQLVQSGAEVKKPGATVKISCKVSGYSFTGHTMNWIRQPPGKGLEWIGLIKPSNGGTSYNQKFKGRVTISADKSISTAYLQWSSLKASDTAMYYCAHGHYESYFLMDYWGQGTLVTVSS
VL: DIQMTQSPSSLSASVGDRVTITCKASQDVSSAVAWYQQKPGQAPRLLIYWASTRHTGVPSRFSGSGSGTEFTLTISSLQPDDFATYYCQEHFSTPLTFGQGTKVEIK
B5: HC-W110L (antibody, V domains shown)
VH: EVQLVQSGAEVKKPGATVKISCKVSGYSFTGHTMNWIRQPPGKGLEWIGLIKPSNGGTSYNQKFKGRVTISADKSISTAYLQWSSLKASDTAMYYCAHGHYESYFAMDYLGQGTLVTVSS
VL: DIQMTQSPSSLSASVGDRVTITCKASQDVSSAVAWYQQKPGQAPRLLIYWASTRHTGVPSRFSGSGSGTEFTLTISSLQPDDFATYYCQEHFSTPLTFGQGTKVEIK
B6: HC-A106Y (antibody, V domains shown)
VH: EVQLVQSGAEVKKPGATVKISCKVSGYSFTGHTMNWIRQPPGKGLEWIGLIKPSNGGTSYNQKFKGRVTISADKSISTAYLQWSSLKASDTAMYYCAHGHYESYFYMDYWGQGTLVTVSS
VL: DIQMTQSPSSLSASVGDRVTITCKASQDVSSAVAWYQQKPGQAPRLLIYWASTRHTGVPSRFSGSGSGTEFTLTISSLQPDDFATYYCQEHFSTPLTFGQGTKVEIK
B7: HC-A106D (antibody, V domains shown)
VH: EVQLVQSGAEVKKPGATVKISCKVSGYSFTGHTMNWIRQPPGKGLEWIGLIKPSNGGTSYNQKFKGRVTISADKSISTAYLQWSSLKASDTAMYYCAHGHYESYFDMDYWGQGTLVTVSS
VL: DIQMTQSPSSLSASVGDRVTITCKASQDVSSAVAWYQQKPGQAPRLLIYWASTRHTGVPSRFSGSGSGTEFTLTISSLQPDDFATYYCQEHFSTPLTFGQGTKVEIK
B8: HC-W110T (antibody, V domains shown)
VH: EVQLVQSGAEVKKPGATVKISCKVSGYSFTGHTMNWIRQPPGKGLEWIGLIKPSNGGTSYNQKFKGRVTISADKSISTAYLQWSSLKASDTAMYYCAHGHYESYFAMDYTGQGTLVTVSS
VL: DIQMTQSPSSLSASVGDRVTITCKASQDVSSAVAWYQQKPGQAPRLLIYWASTRHTGVPSRFSGSGSGTEFTLTISSLQPDDFATYYCQEHFSTPLTFGQGTKVEIK
B9: HC-E102M (antibody, V domains shown)
VH: EVQLVQSGAEVKKPGATVKISCKVSGYSFTGHTMNWIRQPPGKGLEWIGLIKPSNGGTSYNQKFKGRVTISADKSISTAYLQWSSLKASDTAMYYCAHGHYMSYFAMDYWGQGTLVTVSS
VL: DIQMTQSPSSLSASVGDRVTITCKASQDVSSAVAWYQQKPGQAPRLLIYWASTRHTGVPSRFSGSGSGTEFTLTISSLQPDDFATYYCQEHFSTPLTFGQGTKVEIK
B10: HC-M107E (antibody, V domains shown)
VH: EVQLVQSGAEVKKPGATVKISCKVSGYSFTGHTMNWIRQPPGKGLEWIGLIKPSNGGTSYNQKFKGRVTISADKSISTAYLQWSSLKASDTAMYYCAHGHYESYFAEDYWGQGTLVTVSS
VL: DIQMTQSPSSLSASVGDRVTITCKASQDVSSAVAWYQQKPGQAPRLLIYWASTRHTGVPSRFSGSGSGTEFTLTISSLQPDDFATYYCQEHFSTPLTFGQGTKVEIK
B11: HC-W110N (antibody, V domains shown)
VH: EVQLVQSGAEVKKPGATVKISCKVSGYSFTGHTMNWIRQPPGKGLEWIGLIKPSNGGTSYNQKFKGRVTISADKSISTAYLQWSSLKASDTAMYYCAHGHYESYFAMDYNGQGTLVTVSS
VL: DIQMTQSPSSLSASVGDRVTITCKASQDVSSAVAWYQQKPGQAPRLLIYWASTRHTGVPSRFSGSGSGTEFTLTISSLQPDDFATYYCQEHFSTPLTFGQGTKVEIK
B12: HC-W110R (antibody, V domains shown)
VH: EVQLVQSGAEVKKPGATVKISCKVSGYSFTGHTMNWIRQPPGKGLEWIGLIKPSNGGTSYNQKFKGRVTISADKSISTAYLQWSSLKASDTAMYYCAHGHYESYFAMDYRGQGTLVTVSS
VL: DIQMTQSPSSLSASVGDRVTITCKASQDVSSAVAWYQQKPGQAPRLLIYWASTRHTGVPSRFSGSGSGTEFTLTISSLQPDDFATYYCQEHFSTPLTFGQGTKVEIK
B13: HC-E102G (antibody, V domains shown)
VH: EVQLVQSGAEVKKPGATVKISCKVSGYSFTGHTMNWIRQPPGKGLEWIGLIKPSNGGTSYNQKFKGRVTISADKSISTAYLQWSSLKASDTAMYYCAHGHYGSYFAMDYWGQGTLVTVSS
VL: DIQMTQSPSSLSASVGDRVTITCKASQDVSSAVAWYQQKPGQAPRLLIYWASTRHTGVPSRFSGSGSGTEFTLTISSLQPDDFATYYCQEHFSTPLTFGQGTKVEIK
B14: HC-E102H (antibody, V domains shown)
VH: EVQLVQSGAEVKKPGATVKISCKVSGYSFTGHTMNWIRQPPGKGLEWIGLIKPSNGGTSYNQKFKGRVTISADKSISTAYLQWSSLKASDTAMYYCAHGHYHSYFAMDYWGQGTLVTVSS
VL: DIQMTQSPSSLSASVGDRVTITCKASQDVSSAVAWYQQKPGQAPRLLIYWASTRHTGVPSRFSGSGSGTEFTLTISSLQPDDFATYYCQEHFSTPLTFGQGTKVEIK
B15: HC-F105T (antibody, V domains shown)
VH: EVQLVQSGAEVKKPGATVKISCKVSGYSFTGHTMNWIRQPPGKGLEWIGLIKPSNGGTSYNQKFKGRVTISADKSISTAYLQWSSLKASDTAMYYCAHGHYESYTAMDYWGQGTLVTVSS
VL: DIQMTQSPSSLSASVGDRVTITCKASQDVSSAVAWYQQKPGQAPRLLIYWASTRHTGVPSRFSGSGSGTEFTLTISSLQPDDFATYYCQEHFSTPLTFGQGTKVEIK

Key:
[1] = biological target: Axl (UniProt P30530); assay: ELISA, 1:3 dilution
[2] = biological target: T1, Axl; assay: Affinity ELISA of CPE mutant antibodies for binding to Axl at pH 6.0 over pH 7.4; settings: heavy chain variable region mutants; for Affinity ELISA CPE mutant ratio (1:3, pH 6.0/7.4): 1:3 dilution; for Affinity ELISA CPE mutant ratio (1:9, pH 6.0/7.4): 1:9 dilution
How it was run: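 Single-point mutant anti-Axl antibody library (CPE) screened by ELISA for binding at pH 6.0 versus pH 7.4, at 1:3 and 1:9 antibody dilutions, in serum with FLAG-tag detection and carbonate (Krebs-Ringer) buffer. Selection criterion: pH 6.0/pH 7.4 binding ratio ≥1.5 at either dilution.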

[3] = biological target: Axl (UniProt P30530); assay: ELISA, 1:9 dilution

Molecule | Affinity ELISA CPE mutant ratio (1:3, pH 6.0/7.4) [1] | Affinity ELISA CPE mutant ratio (1:3, pH 6.0/7.4) [2] | Affinity ELISA CPE mutant ratio (1:9, pH 6.0/7.4) [2] | Affinity ELISA CPE mutant ratio (1:9, pH 6.0/7.4) [3]
B1 | 2.67 | 2.674 | 2.853 | 2.85
B2 | 2.43 | 2.429 | 2.801 | 2.8
B3 | 1.52 | 1.519 | 2.196 | 2.2
B4 | 21.5 | 21.538 | 1.613 | 1.61
B5 | 8.22 | 8.220 | 0.924 | 0.924
B6 | 3.29 | 3.293 | 3.060 | 3.06
B7 | 3.39 | 3.389 | 2.506 | 2.51
B8 | 7.47 | 7.469 | 1.372 | 1.37
B9 | 2.08 | 2.079 | 2.363 | 2.36
B10 | 2.16 | 2.164 | 1.357 | 1.36
B11 | 4.3 | 4.304 | 0.800 | 0.8
B12 | 5.99 | 5.991 | 1.062 | 1.06
B13 | 1.8 | 1.798 | 2.677 | 2.68
B14 | 2.08 | 2.076 | 2.315 | 2.31
B15 | 3.46 | 3.463 | 4.021 | 4.02
